The record followed here is patent publication US20160136234A1.

Common to all, as to assay: cell-based or functional assay
For test [1], the target named is CDK9/cyclin T1 (h) (human) (UniProt P50750).
For a further test, the target named is T1, SGK3 (h) (human) (UniProt Q96BR1).
T1 sequence (looked up): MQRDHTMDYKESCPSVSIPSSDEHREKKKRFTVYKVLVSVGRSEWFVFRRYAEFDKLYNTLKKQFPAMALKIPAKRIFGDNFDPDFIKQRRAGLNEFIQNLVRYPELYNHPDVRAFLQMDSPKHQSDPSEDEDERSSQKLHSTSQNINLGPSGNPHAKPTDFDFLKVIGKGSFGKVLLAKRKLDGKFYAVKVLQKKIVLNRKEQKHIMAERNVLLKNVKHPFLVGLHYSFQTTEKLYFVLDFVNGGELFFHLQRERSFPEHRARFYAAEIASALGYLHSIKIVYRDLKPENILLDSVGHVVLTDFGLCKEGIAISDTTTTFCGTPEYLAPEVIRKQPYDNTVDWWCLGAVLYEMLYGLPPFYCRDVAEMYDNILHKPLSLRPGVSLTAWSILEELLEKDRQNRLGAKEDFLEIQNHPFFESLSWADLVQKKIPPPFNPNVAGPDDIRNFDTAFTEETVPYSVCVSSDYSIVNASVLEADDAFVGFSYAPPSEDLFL

A further test concerns the target T2, GRK7 (h) (human) (UniProt Q8WTQ7).
T2 sequence (looked up): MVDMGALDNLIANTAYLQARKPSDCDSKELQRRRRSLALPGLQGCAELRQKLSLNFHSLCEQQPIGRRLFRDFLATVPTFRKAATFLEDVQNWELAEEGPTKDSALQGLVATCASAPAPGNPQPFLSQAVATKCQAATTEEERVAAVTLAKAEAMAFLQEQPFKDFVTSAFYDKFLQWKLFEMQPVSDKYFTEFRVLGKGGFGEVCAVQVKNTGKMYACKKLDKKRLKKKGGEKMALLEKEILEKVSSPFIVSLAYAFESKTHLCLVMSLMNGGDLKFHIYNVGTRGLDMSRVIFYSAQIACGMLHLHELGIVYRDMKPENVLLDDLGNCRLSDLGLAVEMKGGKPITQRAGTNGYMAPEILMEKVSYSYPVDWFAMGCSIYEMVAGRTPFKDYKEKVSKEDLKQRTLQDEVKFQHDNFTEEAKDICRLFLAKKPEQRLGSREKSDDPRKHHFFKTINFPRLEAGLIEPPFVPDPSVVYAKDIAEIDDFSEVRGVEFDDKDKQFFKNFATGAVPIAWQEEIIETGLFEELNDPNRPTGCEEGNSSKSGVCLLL

Another test concerns the target T3, Txk (h) (human) (UniProt P42681).
T3 sequence (looked up): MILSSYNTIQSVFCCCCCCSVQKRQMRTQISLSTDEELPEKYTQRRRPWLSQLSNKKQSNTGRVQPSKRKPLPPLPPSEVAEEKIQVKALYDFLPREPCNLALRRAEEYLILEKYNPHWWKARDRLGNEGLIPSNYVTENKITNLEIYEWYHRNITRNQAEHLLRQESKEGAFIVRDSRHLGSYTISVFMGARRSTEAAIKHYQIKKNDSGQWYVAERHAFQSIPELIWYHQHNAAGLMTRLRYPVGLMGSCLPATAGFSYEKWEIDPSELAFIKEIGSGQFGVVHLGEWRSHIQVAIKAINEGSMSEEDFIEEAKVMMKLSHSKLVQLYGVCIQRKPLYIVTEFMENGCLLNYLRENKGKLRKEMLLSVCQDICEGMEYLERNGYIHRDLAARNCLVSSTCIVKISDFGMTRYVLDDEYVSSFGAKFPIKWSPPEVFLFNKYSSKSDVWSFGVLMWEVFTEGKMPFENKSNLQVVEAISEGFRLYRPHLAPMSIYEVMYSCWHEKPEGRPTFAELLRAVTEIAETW

In a further test the target is T4, Flt3(D835Y) (h) (human) (UniProt P36888).
T4 sequence (looked up): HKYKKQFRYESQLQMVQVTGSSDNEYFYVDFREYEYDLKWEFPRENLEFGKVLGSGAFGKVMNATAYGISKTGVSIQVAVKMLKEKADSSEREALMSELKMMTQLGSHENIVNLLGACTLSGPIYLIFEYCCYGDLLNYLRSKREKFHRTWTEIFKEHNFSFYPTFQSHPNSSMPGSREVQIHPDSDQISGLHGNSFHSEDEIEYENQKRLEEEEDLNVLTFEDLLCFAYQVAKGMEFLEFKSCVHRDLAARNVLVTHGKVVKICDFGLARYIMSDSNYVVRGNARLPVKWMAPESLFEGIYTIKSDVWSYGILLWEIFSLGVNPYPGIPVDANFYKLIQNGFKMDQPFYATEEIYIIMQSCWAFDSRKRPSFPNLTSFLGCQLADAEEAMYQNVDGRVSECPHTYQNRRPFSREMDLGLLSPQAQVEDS

A further test concerns the target T5, Ret(V804M) (h) (human) (UniProt P07949).
T5 sequence (looked up): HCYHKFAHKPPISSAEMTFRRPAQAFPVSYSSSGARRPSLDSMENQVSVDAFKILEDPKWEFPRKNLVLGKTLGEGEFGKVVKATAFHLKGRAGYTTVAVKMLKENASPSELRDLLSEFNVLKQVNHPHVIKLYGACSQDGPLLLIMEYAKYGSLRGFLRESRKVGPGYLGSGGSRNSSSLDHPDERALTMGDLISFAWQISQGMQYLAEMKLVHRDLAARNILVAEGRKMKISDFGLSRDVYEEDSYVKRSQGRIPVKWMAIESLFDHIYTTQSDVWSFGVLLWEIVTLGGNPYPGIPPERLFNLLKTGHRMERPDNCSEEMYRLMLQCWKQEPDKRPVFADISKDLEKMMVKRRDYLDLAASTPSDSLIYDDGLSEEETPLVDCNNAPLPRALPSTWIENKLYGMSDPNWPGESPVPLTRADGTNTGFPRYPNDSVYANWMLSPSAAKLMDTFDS

For MMI-0300 (peptide), the % activity at 100 µM in test [1] was determined as 91%; with SGK3 (h) (human) it was 10%; in the test with GRK7 (h) (human) it was 122%; in the test with Txk (h) (human), 48%; with Flt3(D835Y) (h) (human), 80%; with Ret(V804M) (h) (human), 95%.
